Here are results for 2 molecules from PMC3215855 (Developmental cell, 2011).

The experiment addresses T1, LRP6(3-4) (human, UniProt O75581 630-1246, N-linked carbohydrate at five predicted sites).
T1 sequence: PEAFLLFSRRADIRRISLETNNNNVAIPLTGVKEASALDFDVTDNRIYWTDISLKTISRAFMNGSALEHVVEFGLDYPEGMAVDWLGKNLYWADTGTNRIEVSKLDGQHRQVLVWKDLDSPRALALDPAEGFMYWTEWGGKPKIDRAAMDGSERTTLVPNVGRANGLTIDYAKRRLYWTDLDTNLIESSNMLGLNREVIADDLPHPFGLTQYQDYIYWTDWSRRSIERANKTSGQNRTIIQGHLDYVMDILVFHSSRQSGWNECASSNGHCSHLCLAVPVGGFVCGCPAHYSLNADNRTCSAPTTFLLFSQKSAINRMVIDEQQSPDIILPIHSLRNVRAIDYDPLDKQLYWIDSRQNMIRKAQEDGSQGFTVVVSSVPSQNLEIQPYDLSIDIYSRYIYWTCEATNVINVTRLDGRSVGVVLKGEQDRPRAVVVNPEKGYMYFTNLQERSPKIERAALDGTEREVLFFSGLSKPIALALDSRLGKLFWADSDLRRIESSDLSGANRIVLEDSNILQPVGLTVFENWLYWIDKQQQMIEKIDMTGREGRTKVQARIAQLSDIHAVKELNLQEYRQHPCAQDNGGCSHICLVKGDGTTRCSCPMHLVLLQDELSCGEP
As to the kind of experiment: ITC. Background: Isothermal titration calorimetry measures the heat released or taken up as one component is titrated into another.

B1: Dkk1_C (domain or fragment, human, UniProt O94907 178-266, looked up)
chain: MYHTKGQEGSVCLRSSDCASGLCCARHFWSKICKPVLKEGQVCTKHRRKGSHGLEIFQRCYCGEGLSCRIQKDHHQASNSSRLHTCQRH
B1: the stoichiometry N (as a rule, the number of molecules, sites or subunits per partner or assembly) was 1.

B2: full-length Dkk1 (ligand, human, UniProt O94907 32-266, looked up)
chain: TLNSVLNSNAIKNLPPPLGGAAGHPGSAVSAAPGILYPGGNKYQTIDNYQPYPCAEDEECGTDEYCASPTRGGDAGVQICLACRKRRKRCMRHAMCCPGNYCKNGICVSSDQNHFRGEIEETITESFGNDHSTLDGYSRRTTLSSKMYHTKGQEGSVCLRSSDCASGLCCARHFWSKICKPVLKEGQVCTKHRRKGSHGLEIFQRCYCGEGLSCRIQKDHHQASNSSRLHTCQRH
modifications: one N-linked carbohydrate site
Turning to B2, the Kd (commonly the free concentration of one partner at which half of the binding sites on the other are occupied at equilibrium, for simple one-to-one binding) was 67 nM.
